From patent publication US20230374148A1, “BINDING MOLECULES THAT MULTIMERISE CD45” (UCB BIOPHARMA SRL, priority 2020, published 2023)

Tested on: Human PBMC
Assay: Apoptosis of PBMCs: reduction of PBMC cell subsets
Format: cell-based
Conditions: 24 hrs; for Bottom level of % subset cell reduction / Top level of % subset cell reduction: donor UCB Cone-802
Method: Human PBMC derived from blood leukocyte platelet-apheresis cones (NHSBT Oxford) were banked as frozen aliquots. Prior to an assay being performed, 2 vials of frozen cells, each containing 5×10^7 cells in 1 ml, were thawed in a 37° C. water bath and then added to 50 ml complete media (RPMI 1640+2 mM GlutaMAX+1% Pen/Strep, all previous supplied by Invitrogen, +10% Fetal Bovine Serum (FBS), Sigma Aldrich). Cells were spun (500 g, 5 min, at RT) and re-suspended in 30 ml complete media to wash and spun again. Cells were resuspended in 10 ml complete media and then counted using a ChemoMetec NucleoCounter NC-3000. 10^5 cells per well in 100 μl were then added to each well of a Corning Costar 96-well, cell culture treated, U-shaped-bottom microplate (cat no. 07-200-95). The plate was rested in a 37° C., 5% CO2 incubator for 2 hrs. PBMCs from two donors, UCB-Cones 801 and 802 were used in this assay.
Similarly, a 1500 nM stock of 4133-6294 BYbe in complete media was prepared. The microplate was incubated for 1 hr at 37° C., 5% CO2. Following the incubation, Fab-KD-Fab and BYbe reagents were then serially diluted in complete media 1 in 5, nine times to produce to form a 10-point dose curve.
Following the incubation, the plate was spun at 500 g, 5 min, RT, the buffer was aspirated with a BioTek ELx405 microplate washer, and the cells were re-suspended in FACS buffer (PBS+1% bovine serum albumin (BSA)+0.1% NaN3+2 mM EDTA, Sigma Aldrich) to wash and then re-spun and buffer was aspirated to leave the cells in 20 μl residual media. 20 μl of cell-specific marker antibody cocktail solution was added to the wells and incubated for 1 hr at 4° C. The antibody cocktail is detailed in Table 4 below.
Cells were analysed live using the Intellicyt iQue Screener PLUS. Live cell counts were extracted as metrics and graphical representations generated using Graphpad Prism version 8.1 (Graphpad). Asymmetric (five parameter) curve fitting was applied to derive maximal % cell reduction and EC50 values.

B1: 4133-6294 BYbe: anti-CD45 BYbe (Fab-scFv): 4133 Fab HC-G4S linker-6294 scFv heavy chain paired with 4133 light chain (antibody)
heavy: QEQLVESGGGLVQPEGSLTLTCTASGFSFSGNYYMCWVRQAPGKGLEWIGCLYTGSSGSTYYASWAKGRFTISKTSSTTVTLQMTSLTAADTATYFCARDLGYEIDGYGGLWGQGTLVTVSSGQPKAPSVFPLAPCCGDTPSSTVTLGCLVKGYLPEPVTVTWNSGTLTNGVRTFPSVRQSSGLYSLSSVVSVTSSSQPVTCNVAHPATNTKVDKTVAPSTCSKPGGGGSGGGGSEVQLVESGAELARPGASVKMSCKASGYTFTSYTMHWVKQRPGQCLEWIGYINPSSGYTEYNQKFKDKTTLTADKSSSTAYLQLSSLTSEDSAVYYCARVGDGFYPSWLAYWGQGTLVTVSSGGGGSGGGGSGGGGSGGGGSDIQMTQSPKFLLVSAGDRVTITCKASQSVRNDVAWYQQKPGQSPKLLIFYASKRYTGVPDRFTGSGYGTDFTFTISTVQAEDLAVYFCQQDYSSPTTFGCGTKLEIK
light: AQVLTQTPSPVSAVVGGTVSISCQASQSVYNNNNLSWYQQKPGQPPKLLIYDASKLASGVPSRFKGSGSGTQFTLTISGVQCDDAATYYCLGGYYSSGWYFAFGGGTKVVVKRTPVAPTVLIFPPAADQVATGTVTIVCVANKYFPDVTVTWEVDGTTQTTGIENSKTPQNSADCTYNLSSTLTLTSTQYNSHKEYTCKVTQGTTSVVQSFNRGDC
almost maximal reductions in B cells (B cells in PBMC, stated for both reagents): 87% | Bottom level of % subset cell reduction (B cells): 18.74% | Top level of % subset cell reduction (B cells): 87.09% | Bottom level of % subset cell reduction (CD4+ Memory): 24% | Top level of % subset cell reduction (CD4+ Memory): 99.76% | Bottom level of % subset cell reduction (CD4+ Naive): 18.53% | Top level of % subset cell reduction (CD4+ Naive): 99.04% | Bottom level of % subset cell reduction (CD4+): 20.22% | Top level of % subset cell reduction (CD4+): 99.2% | Bottom level of % subset cell reduction (CD8+): 0.543% | Top level of % subset cell reduction (CD8+): 98.36%
